In patent US20160185850A1 (ESBATECH AN ALCON BIOMEDICAL RESEARCH UNIT, published 2016):
Where a chain is given by its changes, count along the chain named. Names may count otherwise.

B1: TB-A H_F68L (scFv)
scFv: DIVMTQSPSSLSASVGDRVTLTCTASQSVSNDVVWYQQRPGKAPKLLIYSAFNRYTGVPSRFSGRGYGTDFTLTISSLQPEDVAVYYCQQDYNSPRTFGQGTKLEVKRGGGGSGGGGSGGGGSGGGGSQVQLVQSGAEVKKPGASVKVSCTASGYTFTHYGMNWVRQAPGKGLEWMGWINTYTGEPTYADKFKDRLTFSLETSASTVYMELTSLTSDDTAVYYCARERGDAMDYWGQGTLVTVSS
B2: TB-A H_M48L/F68I (scFv)
scFv: B1 scFv with M176L, L196I
B3: TB-A H_K43R/F68I (scFv)
scFv: B1 scFv with K171R, L196I
B4: TB-A H_F68V/F70L (scFv)
scFv: B1 scFv with L196V, F198L
B5: TB-A H_F70L (scFv)
scFv: B1 scFv with L196F, F198L
B6: TB-A H_F68A (scFv)
scFv: B1 scFv with L196A
B7: TB-A Linker_G2R H_F68L (scFv)
scFv: B1 scFv with G110R
B8: TB-B L46 (scFv)
scFv: DIVLTQSPSSLSASVGDRVTLTCTASQSVSNDVVWYQQRPGKAPKLLIYSAFNRYTGVPSRFSGSGSGTEFTLTISSLQPEDVAVYYCQQDYNSPRTFGQGTKLEVKRGGGGSGGGGSGGGGSGGGGSQVQLVQSGAEVKKPGASVKVSCTASGYSFTHYGMNWVRQAPGQGLEWMGWINTYTGEPTYADKFKDRVTLTRDTSIGTVYMELTSLTSDDTAVYYCARERGDAMDYWGQGTLVTVSS
notes: Differs from TB-B only at position 46 of VL (R to L); also called TB-B R46L
B9: TB-A H_F70L/L72R (scFv)
scFv: B1 scFv with L196F, F198L, L200R
notes: also called TB-A H70/72

Target: T1, recombinant human TNFα (human, UniProt P01375 77-233)
Test: cell-based or functional assay

T1 sequence (P01375 77-233 limits assumed): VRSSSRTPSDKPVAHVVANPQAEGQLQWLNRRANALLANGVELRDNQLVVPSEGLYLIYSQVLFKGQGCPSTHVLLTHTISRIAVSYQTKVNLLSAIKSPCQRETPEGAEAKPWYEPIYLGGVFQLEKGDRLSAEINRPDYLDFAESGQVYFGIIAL

Question: Which results are given for B1?
Answer: Relative potency: EC50X/EC50TB-A, KYM-1 cells: 1.5 ratio EC50X/EC50TB-A; Relative potency: EC50X/EC50TB-A, L929 cells: 1.32 ratio EC50X/EC50TB-A

Question: Which “Relative potency: EC50X/EC50TB-A, KYM-1 cells” value does the source give for B2 here?
Answer: Its value is 1.6 ratio EC50X/EC50TB-A.

Question: What about the “Relative potency: EC50X/EC50TB-A, L929 cells” value (“Relative potency … L929 cells” for short) of the same binder?
Answer: Its value is 1.1 ratio EC50X/EC50TB-A.

Question: What does the source list for B3?
Answer: Relative potency: EC50X/EC50TB-A, KYM-1 cells: 1.5 ratio EC50X/EC50TB-A; Relative potency: EC50X/EC50TB-A, L929 cells: 1.37 ratio EC50X/EC50TB-A

Question: How did the “Relative potency … L929 cells” value turn out when B4 was run?
Answer: Its value is 1.28 ratio EC50X/EC50TB-A.

Question: With B5 as the binder, how does the “Relative potency … L929 cells” value read?
Answer: The value was 2.7 ratio EC50X/EC50TB-A.

Question: For B6, which “Relative potency … L929 cells” value is on record?
Answer: Its value is 1.14 ratio EC50X/EC50TB-A.

Question: Which results are given for B7?
Answer: Relative potency: EC50X/EC50TB-A, KYM-1 cells: 1.3 ratio EC50X/EC50TB-A; Relative potency: EC50X/EC50TB-A, L929 cells: 0.8 ratio EC50X/EC50TB-A

Target: T1, recombinant human TNFα
Test: ELISA on recombinant human TNFα (FIG. 4A)

Question: Which Kd does the source give for B8 here?
Answer: Its Kd is roughly 100 nM.

Target: T1, recombinant human TNFα
Test: ELISA on recombinant human TNFα

Question: Does B9 bind?
Answer: Result: binds
